According to paper PMC4559962, “Wss1 metalloprotease partners with Cdc48/Doa1 in processing genotoxic SUMO conjugates” (eLife, 2015):

B2: MBP-Wss1 (wild type) (enzyme, S. cerevisiae, UniProt P38838 1-269, looked up)
chain: MKTEGIKSPSAKYHDMAGSQRIPHKNPHIQKVAVLQSKPNKEDALNLIKEIAHKVSYLMKENHFKVTNLVEFYPRDQRLLGMNVNHGSKIMLRLRCSTDEFQFLPMECIMGTMLHELTHNLFGPHDKKFYNKLDELIGRQWVIEQRGLYDTFLGNGQRLGGRANLRSNRYPMTGISTNTGIVRKRGKGVKLGSLHPEGISSIDRGNSPRELAAFAAERRYRDDRWCGETKNNKDQIISDNISSSLEVVILDDDDEVLPGDTLIEVIDLT
notes: Wss1, yeast metalloprotease; Expressed with the pMAL-c2 vector; also called MBP-Wss1 WT; Wss1-beads (CNBr-crosslinked MBP-Wss1 beads); source: E. coli BL21pLysS (DE3), purified on amylose resin, eluted with maltose
B3: his6-Flag (HF)-Doa1 (natural protein, S. cerevisiae, UniProt P36037 1-715, looked up)
chain: MGYQLSATLKGHDQDVRDVVAVDDSKVASVSRDGTVRLWSKDDQWLGTVVYTGQGFLNSVCYDSEKELLLFGGKDTMINGVPLFATSGEDPLYTLIGHQGNVCSLSFQDGVVISGSWDKTAKVWKEGSLVYNLQAHNASVWDAKVVSFSENKFLTASADKTIKLWQNDKVIKTFSGIHNDVVRHLAVVDDGHFISCSNDGLIKLVDMHTGDVLRTYEGHESFVYCIKLLPNGDIVSCGEDRTVRIWSKENGSLKQVITLPAISIWSVDCMSNGDIIVGSSDNLVRIFSQEKSRWASEDEINELSTQVEKSTISSKTIEFDESKLSPYEILQSPGRKEGQIVVVKSPQGTIEAHQFSNSSWKKVGDVVGAGATGNDKKIEFEGKTYDYVFDVDIEDGKPPLKLPINVSDNPYTAADNFLARYELPMSYRDQVVQFILKNTNGISLDQPNDNASSSAVSPSKTSVMKVLPVKQYLIMENYNPDTIFNGIVKINSNEKTFDDEILAQIGGALHDIDESWELLLSFANTIRSNWEIKTPAYDIVRLIVKKLPYSSDIKDYIEEGLGNKNITLTMLTVRILVNCFNNENWGVKLLESNQVYKSIFETIDTEFSQASAKQSQNLAIAVSTLIFNYSALVTKGNSDLELLPIVADAINTKYGPLEEYQECEEAAYRLTVAYGNLATVEPTLRQFANSVTWLANIKRSYGNVPRFKDIFDDLS
notes: Doa1, Cdc48 cofactor
B4: GST-Cdc48 (full length) (enzyme, S. cerevisiae, UniProt P25694 1-835, looked up)
chain: MGEEHKPLLDASGVDPREEDKTATAILRRKKKDNMLLVDDAINDDNSVIAINSNTMDKLELFRGDTVLVKGKKRKDTVLIVLIDDELEDGACRINRVVRNNLRIRLGDLVTIHPCPDIKYATRISVLPIADTIEGITGNLFDVFLKPYFVEAYRPVRKGDHFVVRGGMRQVEFKVVDVEPEEYAVVAQDTIIHWEGEPINREDEENNMNEVGYDDIGGCRKQMAQIREMVELPLRHPQLFKAIGIKPPRGVLMYGPPGTGKTLMARAVANETGAFFFLINGPEVMSKMAGESESNLRKAFEEAEKNAPAIIFIDEIDSIAPKRDKTNGEVERRVVSQLLTLMDGMKARSNVVVIAATNRPNSIDPALRRFGRFDREVDIGIPDATGRLEVLRIHTKNMKLADDVDLEALAAETHGYVGADIASLCSEAAMQQIREKMDLIDLDEDEIDAEVLDSLGVTMDNFRFALGNSNPSALRETVVESVNVTWDDVGGLDEIKEELKETVEYPVLHPDQYTKFGLSPSKGVLFYGPPGTGKTLLAKAVATEVSANFISVKGPELLSMWYGESESNIRDIFDKARAAAPTVVFLDELDSIAKARGGSLGDAGGASDRVVNQLLTEMDGMNAKKNVFVIGATNRPDQIDPAILRPGRLDQLIYVPLPDENARLSILNAQLRKTPLEPGLELTAIAKATQGFSGADLLYIVQRAAKYAIKDSIEAHRQHEAEKEVKVEGEDVEMTDEGAKAEQEPEVDPVPYITKEHFAEAMKTAKRSVSDAELRRYEAYSQQMKASRGQFSNFNFNDAPLGTTATDNANSNNSAPSGAGAAFGSNAEEDDDLYS
notes: Cdc48, AAA ATPase; source: expressed in bacteria, purified

Assays:
Conditions in all cases: both partners purified
[1] = target: B3; experiment: pull-down; purified HA-Wss1 (full length or truncated) on anti-HA beads with purified His6-Cdc48, GST-Cdc48 or HF-Doa1 (full length or truncated); western blot
[2] = target: B3; experiment: pull-down; purified MBP-Wss1 proteins on amylose beads with purified Cdc48 or adaptor proteins; PAGE with Coomassie staining, western blot with α-His6, ImageJ
[3] = target: B4; experiment: pull-down; Cdc48 complexes preformed from purified GST-Cdc48 with a double molar excess of adaptors; MBP-Wss1 added in stoichiometric amount; glutathione beads; PAGE with Coomassie staining, ImageJ
[4] = target: B2; experiment: pull-down; purified MBP-Wss1 proteins on amylose beads with purified Cdc48 or adaptor proteins; PAGE with Coomassie staining, western blot with α-His6, ImageJ

B1: HA-Wss1 (recombinant, wild type) (enzyme, S. cerevisiae, UniProt P38838 1-269, looked up)
chain: MKTEGIKSPSAKYHDMAGSQRIPHKNPHIQKVAVLQSKPNKEDALNLIKEIAHKVSYLMKENHFKVTNLVEFYPRDQRLLGMNVNHGSKIMLRLRCSTDEFQFLPMECIMGTMLHELTHNLFGPHDKKFYNKLDELIGRQWVIEQRGLYDTFLGNGQRLGGRANLRSNRYPMTGISTNTGIVRKRGKGVKLGSLHPEGISSIDRGNSPRELAAFAAERRYRDDRWCGETKNNKDQIISDNISSSLEVVILDDDDEVLPGDTLIEVIDLT
notes: Wss1, yeast metalloprotease (WLM family); Produced with the pRSET-B vector; also called WT; WT-Wss1; source: E. coli ArcticExpress (DE3), soluble, purified on anti-HA beads and eluted with HA peptide
- binding result [1]: binds

Binder: B2
- binding result [2]: binds
- stoichiometry N [3]: 1

Binder: B3
- stoichiometry N [3]: 1

Binder: B4
- stoichiometry N [4]: 1
